In paper PMC3962895:

Target: dEV8 (8-mer self-peptide) peptide on H-2Kb (mouse)
Assay: data from

Kd: 84.1 µM
Substance: 2C TCR
